Test results as given in the nanobody polyreactivity screen of Harvey et al. (2022).

Test: yeast display, Sf9 membrane polyspecificity reagent, FACS + sequencing; frameworks hold sequencing errors
How it was run: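 A nanobody's polyreactivity label depends on the gate it was sorted from. Yeast display cells were stained with 10% biotinylated, detergent-solubilized Sf9 membrane reagent for 1 hour at 4 °C, enriched on streptavidin microbeads and sorted by FACS. The low and high (top ~1%) gates were set on anti-HA fluorescence for expression and streptavidin fluorescence for reagent binding.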

| Sequence | polyreactivity (PSR sort gate) |
| --- | --- |
| QVQLVESGGGLVQAGGSLRLSCAASGSIFPVYAMGWYRQAPGKERELVAAITWRSGSTYYADSVKGRFTISRDNAKNTVYLQMNSLKPDDTAVYYCAKVPTYRFDHWGQGTQVTVSS | high polyreactivity |
| QVQLVESGGGLVQAGGSLRLSCAASGSIFPWYAMGWYRQAPGKERELVAAISTGGSTYYADSVKGRFTISRDNAKNTVYLQMNSLKPEDTAVYYCAAAYGKYRFGYWGQGTQVTVSS | high polyreactivity |
| QVQLVESGGGLVQAGGSLRLSCAASGSIFPYNAMGWYRQAPGKERELVAAISISGGSTYYADSVKGRFSISRDNAKNTVYLQMNSLKPEDTAVYYCAARQSLSSAFDYWGQGTQVTVSS | low polyreactivity |
| QVQLVESGGGLVQAGGSLRLSCAASGSIFPYYAMGWYRPAPGKERELVAAISSGGSTNYADSVKGRFTISRDNAKNTVYLEMNSLKPEDTAVYYCAARWSRLFRHRVNYWYDYWGQGTQVTVSS | high polyreactivity |
| QVQLVESGGGLVQAGGSLRLSCAASGSIFPYYAMGWYRQAPGKERELVAAISSGGSTNYADSVKGRFTISRDNAKNTVYLQMNSLKPEDTAEYYCAARWSRIFRDRVKYWYDYWGQGTQVTVSS | low polyreactivity |
| QVQLVESGGGLVQAGGSLRLSCAASGSIFPYYAMGWYRQAPGKERELVAAITYIGGDTYYADSVKGRFTISRDNAKNTVYLQMNSLKPEETEVYYCNRPSSLAWPWTGSFSRYDYWGQGTQVTVSS | low polyreactivity |
| QVQLVESGGGLVQAGGSLRLSCAASGSIFPYYAMGWYRQAPGKEWEFVAAISRRGGSTNYADSVKGRFTISRDTAKNTVYLQMNSLKPEDTAVYYCGKYTSYSRGYDYWGQGTQVTVSS | high polyreactivity |
| QVQLVESGGGLVQAGGSLRLSCAASGSIFPYYAMGWYRQSPGKERELVASSNQSDGTTYYADSVKGRFTISRDNAKNTVYLQMNSLKPEDTAVYYCAADTTLQAFIRYRPIGSYDSWGQGTQVTVSS | low polyreactivity |
| QVQLVESGGGLVQAGGSLRLSCAASGSIFPYYVMGWYRQAPGKERELVAAISWSGASTYYADSVKGRFTISRDNAKNTVYLQMNSLKPEDTAVYYCAKYSSHFENDYWGQGTQVTVSS | low polyreactivity |
| QVQLVESGGGLVQAGGSLRLSCAASGSIFQAYAMGWYRQAPGKERELVASISSGGGTNYADSVKGRFTISRDNAKNTVYLQMNSLKPEDTAVYYCAADVYLVKYDYWGQGTQVTVSS | low polyreactivity |
| QVQLVESGGGLVQAGGSLRLSCAASGSIFQGYPMGWYRQAPGKERELVATIRWSSGSRTNYADSVKGRFTISRDNAKNTVYLQMNSLKPEDTAVYYCAAGSRRYKYDYWGQGTQVTVSS | high polyreactivity |
| QVQLVESGGGLVQAGGSLRLSCAASGSIFQHYAMGWYRQAPGKERELVAAISYDTTSTYYADSVKGLFTISRDNAKNTVYLQMNSLKPEDPAVYYCNTDPEVYGPFQYDYWGQGTQVTVSS | low polyreactivity |
| QVQLVESGGGLVQAGGSLRLSCAASGSIFQHYAMGWYRQAPGKVRELVAAISSDTTSTYYADSVKGRFTISRDNAKNTVYLQMHSLKPEDTAVYYCNTYPEVYGPFQYDYWGQGTQVTVSS | low polyreactivity |
| QVQLVESGGGLVQAGGSLRLSCAASGSIFQKNAMGWYRQAPGKERELVAVITRGGTSTYYADSVKGRFTISRDNAKNTVYLQMNSLKAEDTAVYSCAAKADKRLDYWGQGTQVTVSS | low polyreactivity |
| QVQLVESGGGLVQAGGSLRLSCAASGSIFQPYAMGWYRQAPGKERELVAAINGRGGSTHYADSVKGRFTISRDNAKNTVYLQMNSLKPEDTAVYYCAARYYRDYRWYTYAYDYWGQGTQVTVSS | high polyreactivity |
| QVQLVESGGGLVQAGGSLRLSCAASGSIFQQYAMGWYRQAPGKERELVASINTSGDGTYYADSVKGRFTISRDNAKNSVYLQMNSLKPEDTAVYYCAVEGIFEQLNRMDYWGQGTQVTVSS | low polyreactivity |
| QVQLVESGGGLVQAGGSLRLSCAASGSIFQRNAMGSYRQAPGKERELVAAITYSGGGTYYADSVKGRFTISRDNAKNTVYLQMNSLKPEDTAVYYCNADGPSTPWVDYGYWGQGTQVTVSS | low polyreactivity |
